Assay results taken from PMC7083075 (Cell, 2019).

Target: T1, hKCNQ1EM (human KCNQ1, residues 76-620) (human, UniProt P51787-1 76-620)
T1 sequence (looked up): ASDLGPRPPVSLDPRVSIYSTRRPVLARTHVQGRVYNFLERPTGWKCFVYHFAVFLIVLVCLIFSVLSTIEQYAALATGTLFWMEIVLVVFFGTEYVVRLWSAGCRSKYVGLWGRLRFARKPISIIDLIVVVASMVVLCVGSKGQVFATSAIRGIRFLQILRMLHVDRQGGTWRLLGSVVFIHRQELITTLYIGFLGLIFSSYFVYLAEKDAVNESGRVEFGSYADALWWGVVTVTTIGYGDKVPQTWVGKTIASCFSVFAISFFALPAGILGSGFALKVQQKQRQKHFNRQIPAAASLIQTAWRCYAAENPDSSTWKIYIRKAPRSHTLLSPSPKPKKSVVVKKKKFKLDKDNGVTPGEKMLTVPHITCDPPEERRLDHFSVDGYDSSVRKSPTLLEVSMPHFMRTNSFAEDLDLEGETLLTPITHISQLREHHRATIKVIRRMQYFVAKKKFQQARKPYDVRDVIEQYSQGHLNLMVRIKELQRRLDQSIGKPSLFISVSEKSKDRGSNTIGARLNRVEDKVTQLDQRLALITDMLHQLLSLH
Experiment: cryo-EM structure

stoichiometry N: 4 KCNE3 per KCNQ1 tetramer
B1: KCNE3 (full-length human, N-terminal mCherry2) (natural protein, UniProt Q9Y6H6 1-103, looked up)
chain: METTNGTETWYESLHAVLKALNATLHSNLLCRPGPGLGPDNQTEERRASLPGRDDNSYMYILFVMFLFAVTVGSLILGYTRSRKVDKRSDPYHVYIKNRVSMI
